In patent publication US20250011363A1, “OPTIMIZED SHORTENED PEPTIDE THAT BINDS TO ACETYLCHOLINE RECEPTOR, AND USE THEREOF” (SKINMED CO., LTD., priority 2021, published 2025):

Molecular target: acetylcholine receptor
Assay: SPR, receptor immobilized on CM5 chip, peptide 10 uM

Binding affinity (RU)	Binder
26	RKDHIK [6mer-1-919]
42	KKAMHR [6mer-1-925]
43	KKESNK [6mer-1-930]
40	RRPAMR [6mer-1-920]
122	KQVSKR [6mer-2-407]
27	KRADDK [6mer-1-917]
139	KRFLKK [6mer-2-412]
123	KGVLRK [6mer-2-403]
34	RRDWGR [6mer-1-922]
36	RKFWHR [6mer-1-921]
135	KWRQKK [6mer-2-414]
35	KKNWPR [6mer-1-931]
139	KGIYRR [6mer-2-406]
33	RRESMR [6mer-1-918]
153	KRFRKK [6mer-2-410]
145	KRYSRR [6mer-2-402]

Binding affinity (RU)	Binder
139	KQIYRR [6mer-2-408]
40	KRESDR [6mer-1-926]
137	KGYRKK [6mer-2-405]
121	RVLSKR [6mer-2-404]
30	KRYCPK [6mer-1-928]
29	RKFNWR [6mer-1-924]
121	RSRQKK [6mer-2-411]
25	RRCDHK [6mer-1-929]
43	RRASDR [6mer-1-923]
27	RKDTWK [6mer-1-915]
39	RRKCVR [6mer-1-914]
136	RLILKR [6mer-2-413]
37	KRESHR [6mer-1-927]
139	KRRRKR [6mer-2-409]
33	RRNAAK [6mer-1-916]
